{"source": "paper PMC10366545", "about": "“Phosphoregulation of DNA repair via the Rad51 auxiliary factor Swi5–Sfr1” (The Journal of Biological Chemistry, 2023)", "binders": {"B1": {"name": "BA663 80-mer ssDNA (ssDNA)", "DNA": "TTGATAAGAGGTCATTTTTGCGGATGGCTTAGAGCTTAATTGCTGAATCTGGTGCTGTAGCTCAACATGTTTTAAATATG"}, "B2": {"name": "BA663/BA664 80-bp dsDNA (dsDNA)", "DNA 1": "B1 DNA", "DNA 2": "CATATTTAAAACATGTTGAGCTACAGCACCAGATTCAGCAATTAAGCTCTAAGCCATCCGCAAAAATGACCTCTTATCAA"}, "B3": {"name": "Rad51 (natural protein, S. pombe, UniProt P36601 1-365, looked up)", "chain": "MADTEVEMQVSAADTNNNENGQAQSNYEYDVNVQDEEDEAAAGPMPLQMLEGNGITASDIKKIHEAGYYTVESIAYTPKRQLLLIKGISEAKADKLLGEASKLVPMGFTTATEYHIRRSELITITTGSKQLDTLLQGGVETGSITELFGEFRTGKSQICHTLAVTCQLPIDMGGGEGKCLYIDTEGTFRPVRLLAVADRYGLNGEEVLDNVAYARAYNADHQLELLQQAANMMSESRFSLLVVDSCTALYRTDFSGRGELSARQMHLARFMRTLQRLADEFGIAVVITNQVVAQVDGISFNPDPKKPIGGNILAHSSTTRLSLRKGRGEQRICKIYDSPCLPESEAIFAINSDGVGDPKEIIAPV", "notes": "Rad51 recombinase, S. pombe; also called S. pombe Rad51; Rad51-ssDNA filament"}, "B4": {"name": "Swi5–Sfr1 phosphomimetic mutant complex (S5S1-PM) (complex, S. pombe)", "chain 1": "MSQTINSELNENATSQCKEDLKVDLSESDLRDSQGQLGIENPPKCNNSGNHSDNLGFIEQSETVHPENEKALDPDLRDTKIHTSLPITTPFSKKRAREAKNILLKPFKDPLRQTADPQVADTNLKPSLAVTNLNSDETNTSSEPVTSPLRTTPNSIKRQKRLFKDPISNCLNPKSDPEITQLLSRRLKLEKEVRNLQEQLITAETARKVEAKNEDKDLQTLIQKWKNAAQQAAEVLFKPMAERIRLAGGVTQSFRIEEGENKGQIQEVRTEFTMSMFLNQFGVPVHLMSFDEENGDWKS", "chain 2": "MEKSQLESRVHLLEQQKEQLESSLQDALAKLKNRDAKQTVQKHIDLLHTYNEIRDIALGMIGKVAEHEKCTSVELFDRFGVNGSE", "notes": "Sfr1, S. pombe, five S/T phosphosites (S24, T73, S109, S116, S165) mutated to D; Swi5, S. pombe; source: E. coli BL21 DE3 (pRARE2), Sfr1 co-expressed with Swi5 from pET11b, purified (His-tag column, HiTrap Q, Superdex 200); not shown: His6, N-terminal, kept"}, "B5": {"name": "BA494 116-mer ssDNA (ssDNA)", "DNA": "TTCAATATCTGGTTGAACGGCGTCGCGTCGTAACCCAGCTTGGTAAGTTGGATTAAGCACTCCGTGGACAGATTTGTCATTGTGAGCATTTTCATCCCGAAGTTGCGGCTCATTCT"}, "B6": {"name": "BA655 100-mer ssDNA (ssDNA)", "DNA": "ATAAGGCCACGTATTTTGCAAGCTATTTAACTGGCGGCGATTGCGTACCCGACGACCAAAATTAGGGTCAACGCTACCTGTAGGAAGTGTCCGCATAAAG"}}, "key": {"[1]": {"target": "T1, Swi5-Sfr1 (S5S1) wild type (Schizosaccharomyces pombe, UniProt Q9UUB7;Q9USV1 1-85;1-299)", "T1 sequence 1": "B4 chain 2", "T1 sequence 2": "B4 chain 1 with D24S, D73T, D109S, D116S, D165S", "assay": "EMSA; 3.5 mM Mg2+; EMSA: 25 mM Hepes-KOH pH 7.5, 100 mM KCl, 3.5 mM MgCl2, 0.5 mM TCEP, 5% glycerol, 20 nM DNA, 37 C 15 min, 0.8% agarose in TAE at 4 C; pull-down: 25 mM Tris-Cl pH 7.5, 100 mM NaCl, 2 mM ATP, 5 mM MgCl2, 37 C", "conditions": "protein: recombinant, tags: N-terminal His6 on Sfr1, copies: 1;1"}, "[2]": {"target": "T2, Swi5–Sfr1 nonphosphorylatable mutant complex (S5S1-NON) (S. pombe, UniProt Q9USV1 1-299; Q9UUB7 1-85, S24 to A | T73 to A | S109 to A | S116 to A | S165 to A)", "T2 construct": "Sfr1, S. pombe, five S/T phosphosites (S24, T73, S109, S116, S165) mutated to A; Swi5, S. pombe; source: E. coli BL21 DE3 (pRARE2), Sfr1 co-expressed with Swi5 from pET11b, purified (His-tag column, HiTrap Q, Superdex 200); not shown: His6, N-terminal, kept", "T2 sequence (looked up) 1": "B4 chain 1 with D24A, D73A, D109A, D116A, D165A", "T2 sequence (looked up) 2": "B4 chain 2", "assay": "pull-down; in solution; nickel resin holds hexahistidine-tagged S5S1; 500 nM each protein; 30 mM Tris-Cl 7.5, 100 mM KCl, 5 mM MgCl2, 1 mM ATP, 0.25 mM TCEP, 5% glycerol, 0.05% Tween-20; 30 °C 15 min, then resin 1 h at 4 °C; SDS-PAGE, Coomassie", "conditions": "both partners purified"}, "[3]": {"target": "T3, Swi5–Sfr1 complex (wildtype, hexahistidine-tagged Sfr1) (S. pombe, UniProt Q9USV1 1-299; Q9UUB7 1-85)", "T3 construct": "Sfr1, S. pombe; Swi5, S. pombe; Made in E. coli, so it serves as the unphosphorylated sample; also called S5S1; wildtype S5S1; source: E. coli BL21 DE3 (pRARE2), Sfr1 co-expressed with Swi5 from pET11b, purified (His-tag column, HiTrap Q, Superdex 200); not shown: His6, N-terminal, kept", "T3 sequence (looked up) 1": "B4 chain 1 with D24S, D73T, D109S, D116S, D165S", "T3 sequence (looked up) 2": "B4 chain 2", "assay": "pull-down; in solution; nickel resin holds hexahistidine-tagged S5S1; 500 nM each protein; 30 mM Tris-Cl 7.5, 100 mM KCl, 5 mM MgCl2, 1 mM ATP, 0.25 mM TCEP, 5% glycerol, 0.05% Tween-20; 30 °C 15 min, then resin 1 h at 4 °C; SDS-PAGE, Coomassie", "conditions": "both partners purified"}, "[4]": {"target": "B3", "assay": "pull-down; filament binding assay: Rad51 (3.33 μM) filaments on circular ssDNA (10 μMnt) held on streptavidin beads through a biotinylated oligonucleotide; 3.33 μM S5S1 added, 5 min 37 °C; 25 mM Tris-Cl 7.5, 100 mM NaCl, 3.5 mM MgCl2, 2 mM ATP, 0.5 mM TCEP, 5% glycerol, 0.05% Tween-20; Sfr1 signal normalised to Rad51, relative to wildtype, n = 3", "conditions": "both partners purified"}, "[5]": {"target": "T4, Rad51 (Schizosaccharomyces pombe, UniProt P36601 1-365)", "T4 sequence": "B3 chain", "assay": "negative-stain EM; 2 mM ATP, 5 mM Mg2+; EMSA: 25 mM Hepes-KOH pH 7.5, 100 mM KCl, 3.5 mM MgCl2, 0.5 mM TCEP, 5% glycerol, 20 nM DNA, 37 C 15 min, 0.8% agarose in TAE at 4 C; pull-down: 25 mM Tris-Cl pH 7.5, 100 mM NaCl, 2 mM ATP, 5 mM MgCl2, 37 C", "conditions": "protein: recombinant"}, "[6]": {"target": "T5, Rad51;Swi5-Sfr1 (S5S1) wild type (Schizosaccharomyces …, UniProt P36601;Q9UUB7;Q9USV1 1-365;1-85;1-299, |)", "T5 sequence 1": "B3 chain", "T5 sequence 2": "B4 chain 2", "T5 sequence 3": "B4 chain 1 with D24S, D73T, D109S, D116S, D165S", "assay": "negative-stain EM; 2 mM ATP, 5 mM Mg2+; longer filaments; EMSA: 25 mM Hepes-KOH pH 7.5, 100 mM KCl, 3.5 mM MgCl2, 0.5 mM TCEP, 5% glycerol, 20 nM DNA, 37 C 15 min, 0.8% agarose in TAE at 4 C; pull-down: 25 mM Tris-Cl pH 7.5, 100 mM NaCl, 2 mM ATP, 5 mM MgCl2, 37 C", "conditions": "protein: recombinant;recombinant; tags: ;N-terminal His6 on Sfr1"}, "[7]": {"target": "T5, Rad51;Swi5-Sfr1 (S5S1) wild type", "assay": "streptavidin pull-down; ATP, Mg2+, Fbh1-Skp1; S5S1 antagonizes disruption; EMSA: 25 mM Hepes-KOH pH 7.5, 100 mM KCl, 3.5 mM MgCl2, 0.5 mM TCEP, 5% glycerol, 20 nM DNA, 37 C 15 min, 0.8% agarose in TAE at 4 C; pull-down: 25 mM Tris-Cl pH 7.5, 100 mM NaCl, 2 mM ATP, 5 mM MgCl2, 37 C", "conditions": "protein: recombinant;recombinant; tags: ;N-terminal His6 on Sfr1; label: 5' biotin"}, "[8]": {"target": "T4, Rad51", "assay": "streptavidin pull-down; 2 mM ATP, 5 mM Mg2+; EMSA: 25 mM Hepes-KOH pH 7.5, 100 mM KCl, 3.5 mM MgCl2, 0.5 mM TCEP, 5% glycerol, 20 nM DNA, 37 C 15 min, 0.8% agarose in TAE at 4 C; pull-down: 25 mM Tris-Cl pH 7.5, 100 mM NaCl, 2 mM ATP, 5 mM MgCl2, 37 C", "conditions": "protein: recombinant; label: 5' biotin"}}, "note": "Where a chain is given by its changes, count along the chain named."}
{"binder": "B1", "values": [{"measurement": "binding result", "setting": "[1]; label: 3' Cy5", "result": "binds"}]}
{"binder": "B2", "values": [{"measurement": "binding result", "setting": "[1]; label: 3' Cy5 on BA663, blunt", "result": "binds"}]}
{"binder": "B3", "values": [{"measurement": "binding result", "setting": "[2]", "result": "binds"}, {"measurement": "binding result", "setting": "[3]", "result": "binds"}]}
{"binder": "B4", "values": [{"measurement": "fold reduction in coprecipitation with Rad51 filaments against wildtype S5S1", "setting": "[4]", "result": "~5", "unit": "fold"}]}
{"binder": "B5", "values": [{"measurement": "binding result", "setting": "[5]", "result": "binds"}, {"measurement": "binding result", "setting": "[6]", "result": "binds"}]}
{"binder": "B6", "values": [{"measurement": "binding result", "setting": "[7]", "result": "binds"}, {"measurement": "binding result", "setting": "[8]", "result": "binds"}]}
